Assay results published in IntAct's records for PubMed 10749989.

B1: Twist-related protein 1 (Homo sapiens), Q15672 (parent)
chain: MMQDVSSSPVSPADDSLSNSEEEPDRQQPPSGKRGGRKRRSSRRSAGGGAGPGGAAGGGVGGGDEPGSPAQGKRGKKSAGCGGGGGAGGGGGSSSGGGSPQSYEELQTQRVMANVRERQRTQSLNEAFAALRKIIPTLPSDKLSKIQTLKLAARYIDFLYQVLQSDELDSKMASCSYVAHERLSYAFSVWRMEGAWSMSASH

Columns and labels:
TCF3, P15923-1 [1] = variants of: B1; details: with TCF3, P15923-1
TCF3, P15923-1 [2] = variants of: B1; details: with TCF3, P15923-1; remark: listed apart in the source

TCF3, P15923-1, sequence (P15923 whole entry): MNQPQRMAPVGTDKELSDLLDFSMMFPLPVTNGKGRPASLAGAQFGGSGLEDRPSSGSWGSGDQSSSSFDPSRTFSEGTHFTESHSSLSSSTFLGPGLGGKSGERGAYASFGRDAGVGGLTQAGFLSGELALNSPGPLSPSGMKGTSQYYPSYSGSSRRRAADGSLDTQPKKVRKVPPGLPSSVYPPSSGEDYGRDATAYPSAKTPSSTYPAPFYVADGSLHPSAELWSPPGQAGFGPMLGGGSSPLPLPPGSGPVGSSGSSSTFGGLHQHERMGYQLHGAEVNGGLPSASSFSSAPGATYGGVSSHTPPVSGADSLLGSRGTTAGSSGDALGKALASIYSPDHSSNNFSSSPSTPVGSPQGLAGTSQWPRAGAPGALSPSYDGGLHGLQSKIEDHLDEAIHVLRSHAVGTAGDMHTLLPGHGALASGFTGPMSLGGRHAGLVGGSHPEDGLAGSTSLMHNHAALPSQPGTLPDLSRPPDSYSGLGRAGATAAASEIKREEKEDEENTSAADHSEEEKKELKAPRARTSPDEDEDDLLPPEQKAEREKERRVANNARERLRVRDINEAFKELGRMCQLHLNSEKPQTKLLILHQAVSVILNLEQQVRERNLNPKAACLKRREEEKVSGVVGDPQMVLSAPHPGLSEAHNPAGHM

Variant: MMQDVSSSPVSPADDSLSNSEEEPDRQQPPSGKRGGRKRRSSRRSAGGGAGPGGAAGGGVGGGDEPGSPAQGKRGKKSAGCGGGGGAGGGGGSSSGGGSPQSYEELQTQRVMANVRERQRTQSLNEAFPALRKIIPTLPSDKLSKIQTLKLAARYIDFLYQVLQSDELDSKMASCSYVAHERLSYAFSVWRMEGAWSMSASH [A129P]
- effect of a mutation on the interaction (TCF3, P15923-1 [1]): disrupting interaction strength
- effect of a mutation on the interaction (TCF3, P15923-1 [2]): decreasing interaction strength

Variant: MMQDVSSSPVSPADDSLSNSEEEPDRQQPPSGKRGGRKRRSSRRSAGGGAGPGGAAGGGVGGGDEPGSPAQGKRGKKSAGCGGGGGAGGGGGSSSGGGSPQSYEELQTQRVMANVRERQRTQSLNEAFAALRKIIPTLPSDKLSEIQTLKLAARYIDFLYQVLQSDELDSKMASCSYVAHERLSYAFSVWRMEGAWSMSASH [K145E]
- effect of a mutation on the interaction (TCF3, P15923-1 [1]): decreasing interaction strength
- effect of a mutation on the interaction (TCF3, P15923-1 [2]): with no effect

Variant: MMQDVSSSPVSPADDSLSNSEEEPDRQQPPSGKRGGRKRRSSRRSAGGGAGPGGAAGGGVGGGDEPGSPAQGKRGKKSAGCGGGGGAGGGGGSSSGGGSPQSYEELQTQRVMANVRERQRTQSLNEAFAALRKIIPTLPSDKLSKIQTLKLAARYIDFFYQVLQSDELDSKMASCSYVAHERLSYAFSVWRMEGAWSMSASH [L159F]
- effect of a mutation on the interaction (TCF3, P15923-1 [1]): disrupting interaction strength
- effect of a mutation on the interaction (TCF3, P15923-1 [2]): decreasing interaction strength
